Tests used:
[1] = biological target: T1, insulin receptor extracellular domain (EC-IR) (UniProt P06213 28-956); assay: filter binding with RT-qPCR
[2] = biological target: T1, insulin receptor extracellular domain …; assay: ELASA

T1 sequence (P06213 28-956): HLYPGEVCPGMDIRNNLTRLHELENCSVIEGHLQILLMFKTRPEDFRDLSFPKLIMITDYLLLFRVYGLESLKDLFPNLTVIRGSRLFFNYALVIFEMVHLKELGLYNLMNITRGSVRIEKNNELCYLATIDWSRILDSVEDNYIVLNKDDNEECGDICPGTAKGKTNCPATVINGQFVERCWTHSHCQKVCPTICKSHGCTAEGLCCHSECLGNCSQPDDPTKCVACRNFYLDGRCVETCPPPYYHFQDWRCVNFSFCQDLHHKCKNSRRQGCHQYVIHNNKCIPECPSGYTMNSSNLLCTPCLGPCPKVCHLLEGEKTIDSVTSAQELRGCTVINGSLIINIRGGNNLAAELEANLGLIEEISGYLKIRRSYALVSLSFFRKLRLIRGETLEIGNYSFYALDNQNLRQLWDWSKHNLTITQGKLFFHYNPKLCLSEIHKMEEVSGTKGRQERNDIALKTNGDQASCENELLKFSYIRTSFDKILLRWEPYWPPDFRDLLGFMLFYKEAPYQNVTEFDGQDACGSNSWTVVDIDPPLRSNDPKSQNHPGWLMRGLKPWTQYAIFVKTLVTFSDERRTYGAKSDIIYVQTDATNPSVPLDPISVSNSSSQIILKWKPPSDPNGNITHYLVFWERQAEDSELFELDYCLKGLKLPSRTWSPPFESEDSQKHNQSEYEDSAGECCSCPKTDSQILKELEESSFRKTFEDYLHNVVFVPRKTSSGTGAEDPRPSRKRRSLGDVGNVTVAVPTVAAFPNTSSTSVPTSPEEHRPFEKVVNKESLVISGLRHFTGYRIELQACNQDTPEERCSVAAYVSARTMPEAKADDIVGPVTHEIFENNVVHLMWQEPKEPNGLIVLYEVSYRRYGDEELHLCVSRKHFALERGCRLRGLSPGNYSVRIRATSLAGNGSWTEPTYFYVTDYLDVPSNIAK

B1: GL56 (seq5/Gi-2) (XNA)
RNA: GGAGACAAGAAUAAACGCUCAAUGAUUUUGCAGCACUUCUUGUUAUCUUAACGAACUGUUGAUGAUUCGACAGGAGGCUCACAACAGGC
modifications: 2'-fluoro pyrimidines (all C and U), RNA purines
binding result [1]: binds

B2: GL56 5'-biotin (printed as GL56.T in ELASA methods) (XNA)
RNA: B1 RNA
modifications: 2'-fluoro pyrimidines (all C and U), RNA purines
binding result [2]: binds
